T1: C-terminal domain of the Zaire strain of Ebola virus nucleoprotein (EBOV NP^CT) (Ebola virus, Zaire strain (EBOV), UniProt P18272 641-739)
T1 construct: also called EBOV NT^CT; NP^CT EBOV Zaire
T1 sequence: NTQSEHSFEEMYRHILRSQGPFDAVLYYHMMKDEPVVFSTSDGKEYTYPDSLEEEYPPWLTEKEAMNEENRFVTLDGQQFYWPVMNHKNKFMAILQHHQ

B1: Fab Lc scaffold variant ΔΔLKT (mutated; printed in Table 1 as AALKS) (Fab, V domains shown)
VH: EVQLVESGGGLVQPGGSLRLSCAASGFNISYSSIHWVRQAPGKGLEWVASIYSYSGYTSYADSVKGRFTISADTSKNTAYLQMNSLRAEDTAVYYCARSYWYHVGSWHYTGMDYWGQGTLVTVSS
VL: DIQMTQSPSSLSASVGDRVTITCRASQSVSSAVAWYQQKPGKAPKLLIYSASSLYSGVPSRFSGSRSGTDFTLTISSLQPEDFATYYCQQSSSSLITFGQGTKVEIKR
B2: MJ20 RESTV LRT-Fab (Fab, V domains shown)
VH: EVQLVESGGGLVQPGGSLRLSCAASGFNISYSSIHWVRQAPGKGLEWVASIYSYSGYTSYADSVKGRFTISADTSKNTAYLQMNSLRAEDTAVYYCARSYWYHVGSWHYTGMDYWGQGTLVTVSS
VL: DIQMTQSPSSLSASVGDRVTITCRASQSVSSAVAWYQQKPGKAPKLLIYSASSLYSGVPSRFSGSRSGTDFTLTISSLQPEDFATYYCQQSSSSLITFGQGTKVEIKR
notes: also called Fab MJ20
B3: MJ6 EBOV LRT-Fab (Fab, V domains shown)
VH: EVQLVESGGGLVQPGGSLRLSCAASGFNVYYYYIHWVRQAPGKGLEWVASISPYYGYTSYADSVKGRFTISADTSKNTAYLQMNSLRAEDTAVYYCARWSYDQSMSYKSGMDYWGQGTLVTVSS
VL: DIQMTQSPSSLSASVGDRVTITCRASQSVSSAVAWYQQKPGKAPKLLIYSASSLYSGVPSRFSGSRSGTDFTLTISSLQPEDFATYYCQQYSYSLVTFGQGTKVEIKR
notes: also called Fab MJ6
B4: Protein GA1 (designed binder)
chain: TPAVTTYKLVINGRTLSGYTTTTAVDAATAEKVFKQYAYVHEVDGEWTYDDATKTFTVTEKPEKL
notes: also called pGA1; PGA1
B5: Protein G D (designed binder)
chain: TPAVTTYKLVINGRTLSGYTTTTAVDAATAEKVFKQIDMVSSVDGEWTYDDATKTFTVTEKPEKL
notes: also called pGD; D 38IDMVSS43
B6: Protein G F (designed binder)
chain: TPAVTTYKLVINGRTLSGYTTTTAVDAATAEKVFKQYAFGNGVDGEWTYDDATKTFTVTEKPEKL
notes: also called pGF; F 38YAFGNG43

Experiments:
Protein GA1 = molecular target: B4; test: SPR, Fab Lc variant as analyte on His-tag-immobilized GA1
[1] = molecular target: T1, C-terminal domain of the Zaire strain …; test: SPR, Fab as analyte on His-tag-immobilized antigen
[2] = molecular target: T2, Fab^S (Herceptin Fab scaffold variant with Lc E123S; Lc aa 123-127 SQLKS); test: SPR
[3] = molecular target: T2, Fab^S (Herceptin Fab scaffold variant …); test: SPR (preliminary results), Protein G variant against Fab scaffold
[4] = molecular target: T3, Fab^H (Herceptin Fab scaffold with wt human kappa Lc; Lc aa 123-127 EQLKS); test: as above
T3 construct: also called Hkappa

[5] = molecular target: T4, “Λ” Fab scaffold (4D5 scaffold with SEELQANK in the Lc region); test: as above
T4 construct: also called “Lambda” Fab scaffold
T4 sequence (light, as listed by the source): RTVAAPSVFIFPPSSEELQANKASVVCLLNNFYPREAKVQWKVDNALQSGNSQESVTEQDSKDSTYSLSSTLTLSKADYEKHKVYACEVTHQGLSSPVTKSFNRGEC

Row | Binder | Kd [1] [nM] | Kd [3] [nM] | other results
1 | B1 |  |  | Kd (Protein GA1): 12 nM
2 | B2 | 3.4 |  | 
3 | B3 | 0.7 |  | koff [1]: 0.001 s⁻¹
4 | B4 |  | 100 | Kd [2]: ~50 nM
5 | B5 |  | 80 | 
6 | B6 |  | 60 | Kd [4]: 3 nM; Kd [5]: 50 nM
